# Source: the DeepSol protein solubility set
# Assay: soluble on expression in E. coli; label from the status in PepcDB or PDB records
row,Sequence,soluble on expression in E. coli
1,MHHHHHHSSGVDLGTENLYFQSMQGTNPYLTFHCVNQGTILLDLAPEDKEYQSVEEEMQSTIREHRDGGNAGGIFNRYNVIRIQKVVNKKLRERFCHRQKEVSEENHNHHNERMLFHGSPFINAIIHKGFDERHAYIGGMFGAGIYFAENSSKSNQYVYGIGGGTGCPTHKDRSCYICHRQMLFCRVTLGKSFLQFSTIKMAHAPPGHHSVIGRPSVNGLAYAEYVIYRGEQAYPEYLITYQIMKPEAPSQTATAAEQ,soluble
2,MHHHHMITLENPDIKYPLRLIDKEILSHDTRRFRFALPSPQHILGLPIGQHIYLSTRIDGNLVIRPYTPVSSDDDKGFVDLVVKVYFKETHPKFPAGGKMPQYLENMNIGDTIEFRGPNGLLVYQGKGKFAIRADKKSNPVVRTVKSVGMIAGGTGITPMLQVIRAVLKDPNDHTVCYLLFANQSEKDILLRPELEELRNEHSSRFKLWYTVDKAPDAWDYSQGFVNEEMIRDHLPPPGEETLILMCGPPPMIQFACLPNLERVGHPKERCFTF,soluble
3,MHHPPVEELELIDSPAALEWAREWSQATQERWSNDALQRSIREALDTDARIPYVTRRGEYLYNFWRDRDHPRGVWRRTTLESFTSDSPQWQVLIDVDRLAASEEESWVWKGAHVRPHHFDRALIRLSRGGADAVEIREFDLDSGSFVEDHAFAVPEAKTQVCWVDRDTVLVGTDMGAGSLTESGYPARVHVWRRGTNLAEAEEFFCGLSSDLAVSAWAETVPGFERLFVRRALDFYRSRTFIQRDGHLQIIEVPEDCTVVVHREWMYVLPREEYAGIASGGVGAILFEDF,not soluble
4,MHIGQFTRQYPAETAFKVQSNPWKNSPEPFLPMSTQQPKSWADVGKVAGPPRNYHHPYEVKPFEAIDEKNDVFSTMGHWNSEQKQSRQQHQQYQQNQYQARQHQYYQNPPPFYQPEQPVHYQSAQQDVFDNIGEWDNSTPIPSQISPLQLDLTLTTPLPTFQPYPSTRSYSLESPTTSVTSNEEKNSWKTIELILNQKSSRSPSITERLSPVDFGPWTSNL,not soluble
5,MHIKSAIIVVSDRISTGTRENKALPLLQRLMSDELQDYSYELISEVVVPEGYDTVVEAIATALKQGARFIITAGGTGIRAKNQTPEATASFIHTRCEGLEQQILIHGSTHTHLAGLSRGIVGVTGRDDHAALIVNAPSSSGGITDTWAVISPVIPNIFEGLDAS,soluble
6,MHKNGNNGPVIDTKWHYLGPDSEKYGPYMSKDMLFWLQAGYFNDGLQLKTENEPNYHTLGEWSQLLGTHPFSMPVHSLDATIAQMNSMRPHGAMMMVPPGLQNQFQPPMPMRFPPFLPMPLLHQMNQNGPPMGAQMHSQPPSEPIDAGSLSHTPDSENETRLNEQTLQQPPSWLIALGLAGHGRKPHHHQQILAHQHIPQMQHANVATDQVVMKSVECQTEPVEISKEQASRVLSELLGQMVIIN,not soluble
7,MHLAKERSSVSGTLRVGDRSPRIAEVRTALTRLGLLEGTTKNLEQTKSDTFTDSETLFDEDLALALQGFQQARGIIASGEINEITLKLLREASYSLGARVLSFEPNNIFVGDDVVQLQHQLQELGFYTDRVDGRFGELTYTSLVNYQLNYGLNPDGICGPETIRAFGRLGRRITGGSPHALRERERVRDAGPMLAGKRVVIDPGFGGADKGQVVRGPYGDITEEEIIWDLAGRIEGRMIAAGMETIVSRPRQDSPSLKGRADIANAFGADVMISLQCDKYPNDKANGVASFYFGSEMGSSSLTGEMLSGFIQREISARTDLVNCGNHGRTWDLLRITEMPTVEVVLGYLTNPHDVAILTDPEQRDAIAEAIVVAVKRLYLLDDDDQPTGTYRFSEMLEQGLL,not soluble
8,MHPKDQSVTLLSIIRDYLKLSDKEREAARILANGLVKVDGKTVREKKFAVGFMDVIEINGESYRVVYNDQGALVLMKETKERASMKLLKVRSKVIAPGNRIQLGTHDGRTFITDDKSKKVGDVWAVSVPDMKISEIIKMQPGNKAYITAGSHVNQTGTISKIEAKEGSSANLVHFQEGFSTIKDHVFMIGSSKFSFVLSPEEVIPLEHHHHHH,soluble
9,MHPRFQTAFAQLADNLQSALAPILADHHFPAMLTAEQVSTLKNTAGLDEDALAFALLPLAAACARTDLSHFNVGAIARGVSGNWYFGANMEFLGATMQQTVHAEQSAISHAWLRGEKGLAAVTVNYTPCGHCRQFMNELNSGLDLRIHLPGRAPHTLRDYLPDAFGPKDLEIKTLLMDEQDHGFTLTGDTLTQAAITAANKSHMPYSHSPSGVALECKDGRIFTGSYAENAAFNPTLPPLQGALNLLSLNGYDYADIQRAILAEKGDAALIQWDATAATLKALGCHNIDRVLLG,not soluble
10,MHRALNQDDDHNQDGQDLLEAVLARDNLARAWRRVKSNRGAPGIDGVTTAEWPEHARAHWPATREQIEAGRYRPQPVRRVDIPKPDGGQRQLGIPTVTDRVIQQAIAQVLIPIFDPGFSASSFGFRPGRNAHQAIRQVQAHVKAGYRWAVDLDLARFFDNVNHDLLMSLLSRSIADKRLLALIGRYLRAGVLVGEHPQPSEVGTPQGGPLSPLLANVLLHQFDLELERRGHRFARYADDVIILVKSRRAAERVMQSLTYFLQSTLKLTVNLAKSQVAPMSECSFLGFTLVGKKIRWTEKSLANFKHRVRQLTGRSWGVSMEYRLEKLGQYLRGWFGYYGISQYYRPIPELDEWIRRRVRMCYWKQWRWARTKIRHLLDLGIPLKAAIQHGVSSLSYWRMARTPVTQQAMSNDWLRAQGLLSIKDLWCKAQSYGPDKGLEHHHHHH,not soluble
11,MHRIMLSGYLKALVDAGILKERRIKPVTLYSVLRRQDMNIYELTGNAIRSSGSKMDGDTALRLLYAILRRPVFLTEVERCGTKKPLNFETIIWERRKDLIRKLAESGIIIPETDMLVVPKDATADNTIDLISTLLGQVIDLKKYTIPEAEKKQKTLDF,not soluble
12,MHSFLQFLRDDNPGSLEDHLNFVPSDDLKYELGMLLSSRPLYLETDELPFVSSSVLNYGIKSSVFVVSAGEHSDSVNDEISSRILMMLQRYESRLEEPVVEYLSSDDNYSFFSVTALFFMDMVRLCIKWDKNSGEFSLDE,not soluble
13,MHTGCCTTKFDTEVLIIGNGPAGIALSSFLSGMHPFYDATHPHENVTVHEKLLANHDFSLIDQDLSWSSNLTELSQSGRPLSVLYDMLVRPGADMGSDAPGCIQWELNRRREIPHMVIGETKIGGSWNEYDAEMLTVSFSDWMDMPGFTMEQWLGGRPLVKRLPSVAIATYLKKYVERLRLRKKFHQYFVVNSIKKIGDVWVTSGKRSTDGRSFVIRSKQVVVACGKTSPRKLQLPNEEHCSSNIVYDVRALKERLDATKKTVIDEDENYDTPSTSTCSPVIVVGDGVSSVDCVRHCLERDIPVVHVIRRTLRELRNVMLSRLSPIHYSEYTDIYRMMIGRSVHKNYQRVLDASITSVSKIHVEITTGSNREIIEMPYSTVAVCIGRESHFSTVFENAHTFLDYQSEQDETLFAVGAYAGDHFVRFLVGGCLRVAQHITGAANNNNVTAKLLPIC,not soluble
14,MHVTLVEINVHEDKVDEFIEVFRQNHLGSVQEEGNLRFDVLQDPEVNSRFYIYEAYKDEDTVAFHKTTPHYKTCVAKLESLMTGPRKKRLFNGLMP,not soluble
15,MIAASDLKAGMTFEQDGKLIKVMEASHHKPGKGNTVMRMKLKDVRTGSTTDTTMRPDEKVKKAHIDTKPVQYLYSQDDMAIFMDLETYEQYEVPTALIEEELKYLLENMEVKIQFYGEEVIGLTLPTTVILRVAETQPSIKGATVTGSGKPATMETGLVVNVPDFVEADELLEINTAEGTYLKRAK,not soluble
16,MIARRNPIEQLPAIAQDPDKFGVLLSAAEFRTHLVESIRQARKRIYLVALYLENDDAGREILTELYAAKQRNPGLEIHICVDWHRAQRGLIGAAESEGNAAMYRDFAQQHEHCIPVYGIPVRGREVFGVLHLKGFIIDDQVIYSGASLNNVYLQFHGRYRFDRYHTLENAELADSMVHFIQQEMLAHPAVNNLACGSKPTTKEIKSDIRQFRASLAQANYQFAKQKVNEGQVAVTPLVGLGRRRNRLNQSIIQLLASAKDEVFICTPYFNFPPSIAKEVKKALRRGVKVHIVIGDKTANDFYIAPEEPFKTIGGLPYLYELNLRRFAKANEAHIASRKLSIHLWKHENHSFHLKGIWVDKRYMLITGNNLNPRAWKLDLENAILIRDDYHHLTTKFEAEIDNILQHTQLICTYKQIEKPEHYPEKVQRLVRRIMRLKADRVLKQILLEHHHHHH,soluble
